Measurements reported in US11254720B2, “Methods and systems for designing and/or characterizing soluble lipidated ligand agents” (Tufts Medical Center, priority 2013, dated 2022).
Read-outs that look alike come from different tables or passages of the source. Non-standard residues stand in square brackets, D forms with d. Residues, ends and D or L forms follow the SMILES beside them. Tic = O=C(O)[C@@H]1Cc2ccccc2CN1

How the values were obtained:
human CMKLR1 [1] = molecular target: T1, human CMKLR1 (Homo sapiens, UniProt Q99788); assay: SRE-luciferase reporter gene assay in transfected HEK293 cells; settings: for Activity of membrane-tethered ligand at human CMKLR1: tethered ligand cDNA cotransfected, luciferase 24 hours after transfection
T1 sequence (Q99788 1-373): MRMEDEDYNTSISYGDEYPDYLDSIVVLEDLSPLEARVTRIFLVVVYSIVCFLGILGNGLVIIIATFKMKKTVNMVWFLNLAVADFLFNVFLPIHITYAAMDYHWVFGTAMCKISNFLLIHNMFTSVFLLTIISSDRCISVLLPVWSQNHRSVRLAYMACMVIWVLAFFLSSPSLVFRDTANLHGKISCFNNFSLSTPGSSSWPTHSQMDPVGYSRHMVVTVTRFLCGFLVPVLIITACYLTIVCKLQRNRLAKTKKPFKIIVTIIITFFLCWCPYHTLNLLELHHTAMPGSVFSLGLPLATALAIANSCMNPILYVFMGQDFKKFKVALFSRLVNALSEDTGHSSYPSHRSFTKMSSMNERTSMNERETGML
Experimental: (§1) Receptor-mediated signaling was assessed as previously described. Briefly, HEK293 cells were plated at a density of 6,000 cells/well into 96-well clear-bottom plates and grown to ˜80% confluence. […] Expression of Gq5i66V directs signaling of the Gαi-coupled chemerin receptor to stimulation of a Gαq-dependent SRE5x-Luc-PEST reporter gene. For experiments investigating the agonist function of soluble and lipidated peptides, tethered ligand cDNA was not included in the transfection mixture. Twenty four hours after transfection, cells were stimulated with or without peptide agonist for 4 hours in serum-free medium. […] Following ligand stimulation, the media was aspirated and luciferase activity measured using SteadyLite reagent and quantified using a TopCount NTX. A β-galactosidase assay was then performed following assessment of luminescence. Cleavage of 2-nitrophenyl β-D-galactopyranoside substrate was quantified after incubation of cell lysates at 37° C. for 30 to 60 minutes by measuring the optical density at 420 nm on a SpectraMax microplate reader. Luciferase reporter gene activities were normalized to corresponding β-galactosidase activity controls.
(§2) HEK293 cells were transiently transfected with cDNAs encoding i) human or mouse CMKLR1, ii) a SRE5x-Luc reporter gene, iii) a Gαq5i66V chimera, and iv) a β-galactosidase control. Twenty-four hours after transfection, cells were stimulated with ligand for 4 hours and luciferase activity determined as described in Experimental Procedures. Luciferase activity was normalized relative to the maximal value observed using saturating concentrations of the corresponding soluble ligand (=100%). […] As a next step, the effect of membrane anchoring on chemerin activity was examined. […] HEK293 cells were transiently transfected with cDNAs encoding i) various tethered ligands, ii) human or mouse CMKLR1, iii) a SRE5x-Luc reporter gene, iv) aGαq5i66V chimera, and v) a β-galactosidase control. Twenty-four hours after transfection, luciferase activity was determined as described in Experimental Procedures.
(§3) HEK293 cells were transiently transfected with cDNAs encoding i) 8 ng of various tethered ligands, ii) human or mouse CMKLR1, iii) a SRE5x-Luc reporter gene, iv) a Gαq5i66V chimera, and v) a β-galactosidase control. Twenty-four hours after transfection, luciferase activity was determined as described in Experimental Procedures.

mouse CMKLR1 [2] = molecular target: T2, mouse CMKLR1 (Mus musculus, UniProt P97468); assay: as above; settings: for Activity of membrane-tethered ligand at mouse CMKLR1: tethered ligand cDNA cotransfected, luciferase 24 hours after transfection
T2 sequence (P97468 1-371): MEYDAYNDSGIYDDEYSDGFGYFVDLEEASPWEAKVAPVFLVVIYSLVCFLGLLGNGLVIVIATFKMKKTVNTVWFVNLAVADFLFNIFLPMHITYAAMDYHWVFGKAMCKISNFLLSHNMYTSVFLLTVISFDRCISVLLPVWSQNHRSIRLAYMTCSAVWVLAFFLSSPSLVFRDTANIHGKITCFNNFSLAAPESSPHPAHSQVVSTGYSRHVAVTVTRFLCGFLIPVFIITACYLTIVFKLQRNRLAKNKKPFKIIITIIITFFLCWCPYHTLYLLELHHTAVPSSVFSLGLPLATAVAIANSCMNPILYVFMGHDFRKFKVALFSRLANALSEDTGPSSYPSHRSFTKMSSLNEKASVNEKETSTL
Experimental: as §1, §2, §3

Adult CD1 mice = assay: Chronic constriction injury neuropathic pain model, von Frey and acetone tests; assay type: in vivo, mouse; settings: intrathecal 100 pmol, 1 week after CCI
From the text: Intrathecal injection of 1-stable chem (100 pmol), 1 week after CCI, reduces CCI-induced mechanical hypersensitivity (panels A+C) and cold allodynia (panel E). Intrathecal injection of ResolvinE1 (RvE1)(100 pmol), 1 week after CCI, reduces CCI-induced mechanical hypersensitivity (panels B+D) and cold allodynia (panel F). BL=baseline before surgery.
Adult CD1 mice (male, 25-35 g) were used for behavioral studies. Mice were group-housed and kept under a 12-hour light/dark cycle. […]
Nerve injury-induced mechanical allodynia and hypersensitivity were assessed by von Frey hairs as previously described (see Xu et al., Resolvin E1 inhibits neuropathic pain and spinal cord microglial activation following peripheral nerve injury, 2013, J. Neuroimmune Pharmacol, 8: 37-41). […] The 50% paw withdrawal threshold (PWT) was determined using Dixon's up-down method. For paw withdrawal frequency (PWF), the same von Frey hair (0.16 g) was applied 10 times and the number of positive responses to the stimulations counted. A positive response was scored if the mouse sharply withdrew the paw or flinched upon removal of the stimulus. […] In brief, a drop of acetone was placed against the plantar paw of the mouse and the mouse's response monitored for the next 20 seconds. […]

[3] = tested on: HEK293 cells transfected with vector control (pcDNA1.1); assay: Luciferase reporter assay in cells transfected with vector control; assay type: cell-based, human; settings: cells transfected with pcDNA1.1 vector control
Experimental: as §1

human CMKLR1 [4] = molecular target: T1, human CMKLR1; assay: Washout experiments (serial washes after 15 min ligand, luciferase readout); settings: three washes after 15 min ligand
Experimental: (§4) Agonist activity was compared with and without serial washings shortly after addition of ligand. Briefly, HEK293 cells were plated and transfected as described above with the addition of a poly-L-lysine plate pretreatment step to enhance cell adhesion. Twenty-four hours after transfection, cells were stimulated with increasing concentrations of agonist for 15 minutes at 37° C. Selected wells were washed three times with serum-free media. Plates were then incubated for an additional 4 hours. Receptor mediated signaling was assessed using a luciferase based assay as described above.
(§5) HEK293 cells were transiently transfected with cDNAs encoding i) human or mouse CMKLR1, ii) a SRE5x-Luc reporter gene, iii) a Gαq5i66V chimera, and iv) a β-galactosidase control. Twenty-four hours after transfection, cells were stimulated with increasing concentrations of various ligands for 15 minutes. Selected wells were then washed three times with serum-free media and plates were further incubated for 4 hours.

mouse CMKLR1 [5] = molecular target: T2, mouse CMKLR1; assay: as above; settings: three washes after 15 min ligand
Experimental: as §4, §5

CCK2R = molecular target: T3, CCK2R (Homo sapiens, UniProt P32239); assay: Antagonist inhibition of agonist-induced CCK2R signaling (luciferase); assay type: cell-based
T3 construct: expressed in transfected cells; host or cells: HEK293
T3 sequence (P32239 1-447): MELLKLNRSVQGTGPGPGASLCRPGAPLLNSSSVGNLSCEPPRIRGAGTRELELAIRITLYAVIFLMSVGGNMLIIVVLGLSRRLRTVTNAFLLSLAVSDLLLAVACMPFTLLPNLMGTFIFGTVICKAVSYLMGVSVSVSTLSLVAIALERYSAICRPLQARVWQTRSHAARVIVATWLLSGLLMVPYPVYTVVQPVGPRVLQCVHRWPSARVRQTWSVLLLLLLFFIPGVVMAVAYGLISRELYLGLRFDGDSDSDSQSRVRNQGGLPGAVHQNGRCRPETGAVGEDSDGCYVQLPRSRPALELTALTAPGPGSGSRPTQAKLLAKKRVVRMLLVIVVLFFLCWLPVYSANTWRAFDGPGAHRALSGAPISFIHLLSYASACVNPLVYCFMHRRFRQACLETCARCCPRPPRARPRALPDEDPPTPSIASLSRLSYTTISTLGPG
Experimental: A) YM022 blocks tethered CCK4-Gly mediated CCK2R signaling. HEK293 cells were cotransfected with cDNAs encoding: CCK2R, a 5X-SRE-Luc-pest reporter gene, tCCK4-Gly (as indicated), and a β-galactosidase gene to control for transfection efficiency. Four hours following transfection, cells were with treated with increasing concentrations of YM022 for 20 hours. […] B) YM022 blocks s-CCK-4-Gly-COOH and l-CCK4-Gly-COOH mediated activation of CCK2R. HEK293 cells were transfected as indicated above. Twenty hours after transfection, cells were with treated with increasing concentrations of YM022 together with either 10 μM of l-CCK4-Gly-COOH or s-CCK4-Gly-COOH. […] Abbreviations: tCCK4-Gly, tethered glycine extended CCK4; s-CCK4-Gly-COOH, soluble glycine extended CCK4 with a C-terminal free acid; 1-CCK4-Gly-COOH, lipidated glycine extended CCK4 with a C-terminal free acid; CCK2R, cholecystokinin 2 receptor.

## tChem 149-157: membrane-tethered C-terminal chemerin peptide (amino acids 149-157), endogenous sequence ending phenylalanine-serine (MSTSMIRDVELAEEALPKKTGGPQGSRRCLFSLFIVAGATTLFCLLHFGVIYFPGQFAFS; left off: small tags and cut ends)
Human CMKLR1 [1]
  Activity of membrane-tethered ligand at human CMKLR1: activated
Human CMKLR1 [1]; listed as FS
  Activity of membrane-tethered ligand at human CMKLR1: comparable activity
Mouse CMKLR1 [2]
  Activity of membrane-tethered ligand at mouse CMKLR1: activated

## CC[C@@H](O)/C=C/C=C\C[C@@H](O)/C=C/C=C/C=C\[C@@H](O)CCCC(=O)O [RvE1, reference compound]
Adult CD1 mice
  Time point at which a significant decrease in pain scores was observed: 1 h

## CC(C)C[C@H](NC(=O)[C@H](Cc1ccccc1)NC(=O)[C@H](N)Cc1ccc(O)cc1)C(=O)N1CCC[C@H]1C(=O)N[C@H](CO)C(=O)N[C@@H](CCC(N)=O)C(=O)N[C@@H](Cc1ccccc1)C(=O)N[C@H](C)C(=O)N1Cc2ccccc2C[C@H]1C(=O)N[C@@H](CO)C(=O)O [s-Stable Chem, reference compound] (H-[dY]FLP[dS]QF[dA][Tic]S-OH)
[3]
  Agonist activity without CMKLR1 expression: no agonist activity
Human CMKLR1 [1]; pEC50, Human CMKLR1, no wash, mean ± S.E.M.
  EC50: 61.7 nM
Mouse CMKLR1 [2]; pEC50, Mouse CMKLR1, no wash, mean ± S.E.M.
  EC50: 12 nM
Human CMKLR1 [4]
  Agonist activity after serial washes, human CMKLR1: rapidly decreased
Mouse CMKLR1 [5]
  Agonist activity after serial washes, mouse CMKLR1: rapidly decreased

## Cc1cccc(NC(=O)N[C@@H]2N=C(c3ccccc3)c3ccccc3N(CC(=O)c3ccccc3C)C2=O)c1 [YM022]
CCK2R; agonist l-CCK4-Gly-COOH 10 μM, 4 hours, read-out: IC50 for inhibition of l-CCK4-Gly-COOH induced CCK2R signaling
  IC50: 10.2 nM
CCK2R; agonist s-CCK4-Gly-COOH 10 μM, 4 hours, read-out: IC50 for inhibition of s-CCK4-Gly-COOH induced CCK2R signaling
  IC50: 0.84 nM
CCK2R; agonist tCCK4-Gly (tethered), antagonist 20 hours, read-out: IC50 for inhibition of tCCK4-Gly induced CCK2R signaling
  IC50: 0.54 nM

B1: tChem 1-163: membrane-tethered ligand encoding pre-prochemerin (amino acids 1-163), TNFα transmembrane domain (protein)
chain: MSTSMIRDVELAEEALPKKTGGPQGSRRCLFSLFIVAGATTLFCLLHFGVIMRRLLIPLALWLGAVGVGVAELTEAQRRGLQVALEEFHKHPPVQWAFQETSVESAVDTPFPAGIFVRLEFKLQQTSCRKRDWKKPECKVRPNGRKRKCLACIKLGSEDKVLGRLVHCPIETQVLREAEEHQETQCLRVQRAGEDPHSFYFPGQFAFSKALPRS
modifications: left off: small tags and cut ends
Human CMKLR1 [1]
  Activity of membrane-tethered ligand at human CMKLR1: lack activity
Mouse CMKLR1 [2]
  Activity of membrane-tethered ligand at mouse CMKLR1: lack activity

B2: tGalanin: negative control membrane-tethered ligand with the amino acid sequence of human galanin (protein)
chain: MSTSMIRDVELAEEALPKKTGGPQGSRRCLFSLFIVAGATTLFCLLHFGVIGWTLNSAGYLLGPHAVGNHRSFSDKNGLTS
modifications: left off: small tags and cut ends
Human CMKLR1 [1]
  Activity of membrane-tethered ligand at human CMKLR1: lack activity
Mouse CMKLR1 [2]
  Activity of membrane-tethered ligand at mouse CMKLR1: lack activity

B3: tChem 21-157: membrane-tethered full length chemerin (amino acids 21-157) (protein)
chain: MSTSMIRDVELAEEALPKKTGGPQGSRRCLFSLFIVAGATTLFCLLHFGVIELTEAQRRGLQVALEEFHKHPPVQWAFQETSVESAVDTPFPAGIFVRLEFKLQQTSCRKRDWKKPECKVRPNGRKRKCLACIKLGSEDKVLGRLVHCPIETQVLREAEEHQETQCLRVQRAGEDPHSFYFPGQFAFS
modifications: left off: small tags and cut ends
Human CMKLR1 [1]
  Activity of membrane-tethered ligand at human CMKLR1: activated
Mouse CMKLR1 [2]
  Activity of membrane-tethered ligand at mouse CMKLR1: activated
